Test results taken from PMC11401910, “Dual client binding sites in the ATP-independent chaperone SurA” (Nature Communications, 2024).

Assays:
SurA = conditions: read-out: Kd, binding of full-length unfolded OmpX to SurA; cited from earlier work
Source text: (where Ar is an aromatic residue and X is any amino acid), or aromatic-enriched sequences containing an Ar-X-Ar-X-Pro motif. […] Both of these types of peak changes (shifts and/or broadening), can report on binding or conformational changes caused by binding at the location of the corresponding ^13CH3 probe[73],[74].

SurA-WT = molecular target: T1, SurA-WT (Escherichia coli, UniProt P0ABZ6); assay type: binding; conditions: pH 8
T1 construct: made in house; host or cells: E. coli BL21(DE3)
T1 sequence (P0ABZ6 other isoform, or with tags, fused parts or gaps): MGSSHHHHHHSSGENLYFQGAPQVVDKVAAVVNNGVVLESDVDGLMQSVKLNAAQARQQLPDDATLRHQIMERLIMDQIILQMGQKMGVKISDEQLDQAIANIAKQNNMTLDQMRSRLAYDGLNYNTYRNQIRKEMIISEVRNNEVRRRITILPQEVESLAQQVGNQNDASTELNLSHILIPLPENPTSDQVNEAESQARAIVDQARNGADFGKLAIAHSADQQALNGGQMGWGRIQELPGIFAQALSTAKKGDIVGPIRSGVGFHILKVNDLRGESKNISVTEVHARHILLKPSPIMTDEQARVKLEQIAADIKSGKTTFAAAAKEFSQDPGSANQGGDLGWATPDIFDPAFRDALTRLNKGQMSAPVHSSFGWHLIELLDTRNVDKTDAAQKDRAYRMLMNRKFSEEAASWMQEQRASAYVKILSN
Experimental: All NMR experiments were performed on a 950-MHz Bruker Ascend Avance III HD NMR spectrometer equipped with either a Bruker 3 mm TCI or 5 mm TXO triple-resonance cryogenically cooled probe. Peptide binding experiments were performed in 5 mM EDTA, 20 mM Tris-HCl, pH 8.0 with 5 % (v/v) D2O at 25 °C. Binding experiments using full-length OMP sequences also contained 0.8 M urea. Data was acquired for ~16 h with the exception of OMP-containing experiments which were acquired for ~5 h. […] (2D ^1H-^13C SOFAST-HMQC)[70]. […] Errors in the intensity ratios for each peak between two spectra were obtained by propagating the errors according to:1 δR=R*δX/X+δY/Y where δR is the error in the intensity ratio, |R| is the value of the intensity ratio, X and Y are the intensity values for the peak in the first and second spectrum, respectively, and δX and δY are the noise floor values for the first and second spectrum, respectively.
Z-scores for intensity ratio and CSP data were calculated using:3 Zi=xi−μ/σ where xi is the value for a particular peak, and µ and σ are the mean and standard deviation for all peaks, respectively.
For assignment of SurA-WT Ile and Met residues (43 in total) each residue was individually mutated (Supplementary Table 3), and the effect of the mutation assessed by methyl-TROSY NMR. Samples contained 5–70 µM SurA variant. […]

OmpX = conditions: ~75 pM double-labelled OmpX, 30 μM SurA variant, 20 mM Tris-HCl, 0.1 M urea, 0.02% Tween-20, pH 8.0, ~21 °C; apo-OmpX ~0.85
Experimental: Samples were measured at a volume of 100 μL in an 18 well sample chamber (81817, Ibidi) with the focal spot 50 μm above the cover glass on a custom-built confocal microscope (Supplementary Methods) at room temperature (~21 °C). […] Aged Trolox was prepared by adding 1 mM of Trolox to measurement buffer and incubating the sample overnight at room temperature on a rotary shaker to dissolve before being filtered using a 0.22 μm pore size membrane. Tween-20 (0.02% v/v) was added to prevent non-specific absorption to the glass slide.
The ptu files from the SymPhoTime64 software were converted into HDF5 data files using phconvert v0.9 (available at https://github.com/Photon-HDF5/phconvert). Each of these files was then merged to create one file for each condition. […] Firstly, the background was independently calculated for every 60 s period of measurement. […]
BVA[68] was used to assay for dynamics on the ms timescale occurring during bursts. This analysis compares the expected variance in Eraw based on shot noise against the measured variance in Eraw in each individual burst (si). […] To calculate si, we segmented each burst into consecutive windows of 5 photons, and calculated the standard deviation of all windows within the burst. […]

Molecule	Kd (SurA)	Interaction of unfolded OMP with SurA-WT domains by methyl-TROSY NMR, in words (SurA-WT)	Maximum of the raw FRET distribution (Eraw) of OmpX bound to SurA variant (OmpX)
OmpX: unfolded E. coli outer membrane protein OmpX, mature sequence residues 24-171 (protein) ATSTVTGGYAQSDAQGQMNKMGGFNLKYRYEEDNSPLGVIGSFTYTEKSRTASSGDYNKNQYYGITAGPAYRINDWASIYGVVGVGYGKFQTTEYPTYKHDTSDYGFSYGAGLQFNPMENVALDFSYEQSRIRSVDVGTWIAGVGYRF	~1000 nM	regions in the core and P1 domains directly interact with OmpX, while P2 is largely uninvolved in OmpX binding	
SurA-core: SurA construct lacking both PPIase domains (residues 172-389 deleted) (protein, left off: His6, N-terminal, state not stated) APQVVDKVAAVVNNGVVLESDVDGLMQSVKLNAAQARQQLPDDATLRHQIMERLIMDQIILQMGQKMGVKISDEQLDQAIANIAKQNNMTLDQMRSRLAYDGLNYNTYRNQIRKEMIISEVRNNEVRRRITILPQEVESLAQQVGNQNDASDAAQKDRAYRMLMNRKFSEEAASWMQEQRASAYVKILSN			~ 0.45
